According to article PMC9913352:

Target: untagged human Nit1 isoform 4 (human)
Assay: SEC; untagged proteins after on-column TEV cleavage, Superdex 200-HR, 50 mM Tris/HCl pH 8.0, 100 mM NaCl, 2 mM MgCl2, 0.3 mL/min; calibrated with marker proteins

stoichiometry N: 4
Substance: untagged human Nit1 isoform 4 (natural protein)
